According to patent publication US9255257B2, “PmST1 mutants for chemoenzymatic synthesis of sialyl lewis X compounds” (THE REGENTS OF THE UNIVERSITY OF CALIFORNIA, priority 2011, dated 2016):
Positions count from the first letter of the chain named. Names may count otherwise. “Also recorded” adds a separate entry of the source.

Experiments:
[1] = α2-3-sialidase activity assay with sialyl Le^x substrate (HPLC); type: biochemical; conditions: for Neu5Ac cleaved from Neu5Acα2-3Le^xβMU: substrate 1 mM, enzyme 4 mg mL^−1, MES pH 5.5, 37° C.
Description: The α2-3-sialidase activity assays of PmST1 and mutants. The reactions were carried out in duplicate in a total volume of 10 μL at 37° C. for 20 hr in MES buffer (100 mM, pH 5.5) containing Neu5Acα2-3Le^xβMU (1 mM) and an enzyme (4 mg mL^−1). Aliquots of 1 μL were withdrawn at 1 hr, 6 hr and 20 hr, and analyzed by HPLC as described above for the α2-3-sialyltransferase assays.

[2] = Thermal stability studies by HPLC; type: physicochemical; conditions: incubating at 37° C. for up to 2 hours
Description: Stability studies by HPLC. Thermal stability studies were carried out by incubating wild-type PmST1 or E271F/R313Y mutant solution (20 μg mL^−1) at 37° C. Samples were withdrawn at various time intervals for enzyme activity assays.

[3] = HPLC time course of PmST1-catalyzed α2-3-sialylation of Le^xβMU; type: biochemical; conditions: Le^xβMU 1 mM, one equivalent of CMP-Neu5Ac
Source text: Numbers in parentheses represent the % consumption of CMP-Neu5Ac by capillary electrophoresis (CE) assays.
In fact, donor hydrolysis has been observed in other glycosyltransferase-catalyzed reactions that lead to lower synthetic yields. […] Two recent papers discussed the donor hydrolysis activities of human blood group A and B glycosyltransferases (GTA and GTB) which are Mn^2+-dependent and the UDP-Gal hydrolysis activity of GTB is increased in the presence of an acceptor substrate analog. Nevertheless, the effect of donor hydrolysis of glycosyltransferases on glycosylation processes has not been investigated in detail. In addition, no strategy has been reported for improving the yields of glycosyltransferase-catalyzed reactions by decreasing donor hydrolysis activity.

[4] = Apparent kinetics of the α2-3-sialidase activity (HPLC, fluorescent sialoside substrate); type: biochemical; conditions: substrate Neu5Acα2-3LacβMU
Description: All the sialidase and α2-3-sialyltransferase assays were performed in an HPLC system. Reactions were stopped by adding 10 μL of ethanol. […] The mobile phase was 25% acetonitrile.
Kinetics of the α2-3-sialidase activity of PmST1 mutants.

[5] = Apparent kinetics of the α2-3-sialyltransferase activity, LacβMU acceptor and CMP-Neu5Ac donor (HPLC); type: biochemical; conditions: acceptor LacβMU
Description: To obtain the apparent kinetic parameters of LacβMU as the acceptor for the α2-3-sialyltransferase activity, the kinetic assays were performed in duplicate in reaction mixtures of 10 μL containing Tris-HCl buffer (100 mM, pH 8.5), a fixed concentration of CMP-Neu5Ac (1 mM), different concentrations of LacβMU (0.2, 0.5, 1.0, 2.0, 5.0, and 9.0 mM) and the mutant proteins (2 μg mL^−1 of E271F, 2 μg mL^−1 of R313Y, and 1.6 μg mL^−1 of E271F/R313Y). All reactions were allowed to proceed at 37° C. for 5 min (E271F), 7 min (R313Y), and 10 min (E271F/R313Y). The apparent kinetic parameters were obtained by fitting the experimental data (the average values of duplicate assay results) into the Michaelis-Menten equation using Grafit 5.0.
To obtain the apparent kinetic parameters of CMP-Neu5Ac as the donor for the α2-3-sialyltransferase activity, the kinetic assays were performed in duplicate in reaction mixtures of 10 μL containing Tris-HCl buffer (100 mM, pH 8.5), a fixed concentration of LacβMU (1 mM), different concentrations of CMP-Neu5Ac (0.1, 0.2, 0.5, 1.0, 2.0, 5.0, 10.0 and 20.0 mM) and the mutant proteins (2 μg mL^−1 of E271F, 2 μg mL^−1 of R313Y, and 1.6 μg mL^−1 of E271F/R313Y). All reactions were allowed to proceed at 37° C. for 2 min (E271F), 7 min (R313Y), and 5 min (E271F/R313Y). The apparent kinetic parameters were obtained by fitting the experimental data (the average values of duplicate assay results) into the Michaelis-Menten equation using Grafit 5.0.
All the sialidase and α2-3-sialyltransferase assays were performed in an HPLC system. Reactions were stopped by adding 10 μL of ethanol. After necessary dilutions were performed to adjust the concentrations of the fluorescent-labeled compounds, the samples were then kept on ice until aliquots of 8 μL were injected and analyzed by a Shimadzu LC-6AD system equipped with a membrane on-line degasser, a temperature control unit, and a fluorescence detector (Shimadzu RF-10AXL). A reverse-phase Premier C18 column (250×4.6 mm i.d., 5 μm particle size, Shimadzu) protected with a C18 guard column cartridge was used. The mobile phase was 25% acetonitrile. The fluorescent compounds LacβMU and Neu5Acα2-3LacβMU were detected by excitation at 325 nm and emission at 372 nm.
Kinetics of the α2-3-sialyltransferase activity of PmST1 mutants by HPLC analysis. […] The supernatants were diluted with 25% acetonitrile and kept on ice until aliquots of 8 μL were injected and analyzed by the Shimadzu LC-6AD system equipped with a membrane on-line degasser, a temperature control unit, and a fluorescence detector (Shimadzu RF-10AXL). […] The fluorophore (MU)-labeled compounds were detected by excitation at 325 nm and emission at 372 nm. […]

[6] = Apparent kinetics of the α2-3-sialyltransferase activity, Le^xβMU acceptor and CMP-Neu5Ac donor (HPLC); type: biochemical; conditions: acceptor Le^xβMU
[7] = Kinetics of the donor (CMP-Neu5Ac) hydrolysis activity by capillary electrophoresis; type: biochemical
Description: The reactions were stopped by adding 10 μL of pre-chilled ethanol. The mixtures were incubated on ice for 30 min and centrifuged at 13,000 rpm for 5 min. The supernatants were diluted with borate buffer (25 mM, pH 9.5) and aliquotes of 5 μL each were injected to a Beckman Coulter P/ACE™ MDQ Capillary Electrophoresis system equipped with a capillary (60 cm×75 μm i.d.) and monitored at 254 nm. The apparent kinetic parameters were obtained by fitting the experimental data (the average values of duplicate assay results) into the Michaelis-Menten equation using Grafit 5.0.

B1: WT: multifunctional α2-3-sialyltransferase from Pasteurella multocida (PmST1), wild type sequence SEQ ID NO: 13; control enzyme (protein, listed as Pasteurella multocida)
chain: MKNRRLNFKLFFLIIFSLFSTLSWSKTITLYLDPASLPALNQLMDFTQNNEDKTHPRIFGLSRFKIPDNIITQYQNIHFVELKDNRPTEALFTILDQYPGNIELNIHLNIAHSVQLIRPILAYRFKHLDRVSIQQLNLYDDGSMEYVDLEKEENKDISAEIKQAEKQLSHYLLTGKIKFDNPTIARYVWQSAFPVKYHFLSTDYFEKAEFLQPLKEYLAENYQKMDWTAYQQLTPEQQAFYLTLVGFNDEVKQSLEVQQAKFIFTGTTTWEGNTDVREYYAQQQLNLLNHFTQAEGDLFIGDHYKIYFKGHPRGGEINDYILNNAKNITNIPANISFEVLMMTGLLPDKVGGVASSLYFSLPKEKISHIIFTSNKQVKSKEDALNNPYVKVMRRLGIIDESQVIFWDSLKQL
modifications: PmST1 wild-type glycosyltransferase family 80 (GT80), GT80 sialyltransferase, Pm0188Ph
notes: control enzyme
Neu5Ac cleaved from Neu5Acα2-3Le^xβMU ([1]; 1 h): 2.0%
Neu5Ac cleaved from Neu5Acα2-3Le^xβMU ([1]; 6 h): 7.0%
Neu5Ac cleaved from Neu5Acα2-3Le^xβMU ([1]; 20 h): 7.5%
thermal stability of α2-3-sialyltransferase activity (FIG. 3, in words) [2]: did not decrease their activities significantly
time to reach yield plateau [3]: ≤ 2 min
yield plateau of sialylation of Le^xβMU [3]: 1.1-1.3%

B2: M144D (protein, listed as Pasteurella multocida)
chain: B1 chain with M144D
modifications: PmST1 wild-type glycosyltransferase family 80 (GT80), GT80 sialyltransferase, Pm0188Ph
decrease of α2-3-sialidase activity (catalytic efficiency kcat/Km) compared to wild-type PmST1 [4]: 5588 fold
decrease of kcat value, α2-3-sialyltransferase activity, compared to WT [5]: 2 fold
decrease of α2-3-sialyltransferase activity compared to WT [5]: 18 fold
increase of Km value, α2-3-sialyltransferase activity, compared to WT [5]: 9 fold
change of efficiency of α2-3-sialyltransferase activity compared to WT (in words) [6]: did not change the efficiency of the α2-3-sialyltransferase activity of PmST1 significantly; also recorded: without appreciably changing the efficiency of the α2-3-sialyltransferase activity
decrease of efficiency of CMP-Neu5Ac (donor) hydrolysis activity compared to WT [7]: 20 fold
decrease of kcat value, donor hydrolysis, compared to WT [7]: 4.2 fold
increase of Km value, donor hydrolysis, compared to WT [7]: 4.9 fold
sialidase activity with Neu5Acα2-3Le^xβMU as substrate (in words) [1]: no sialidase activity

B3: M144H (protein)
chain: B1 chain with M144H
decrease of α2-3-sialidase activity (catalytic efficiency kcat/Km) compared to wild-type PmST1 [4]: 594 fold
decrease of α2-3-sialyltransferase activity compared to WT [5]: 1.3 fold
increase of efficiency of α2-3-sialyltransferase activity compared to WT [6]: 2.6 fold
decrease of efficiency of CMP-Neu5Ac (donor) hydrolysis activity compared to WT [7]: 3.3 fold
increase of Km value, donor hydrolysis, compared to WT [7]: 8.7 fold
increase of kcat value, donor hydrolysis, compared to WT [7]: 2.6 fold
sialidase activity with Neu5Acα2-3Le^xβMU as substrate (in words) [1]: increased sialidase activity compared to the WT PmST1
Neu5Ac cleaved from Neu5Acα2-3Le^xβMU ([1]; 1 h): 10.0%
Neu5Ac cleaved from Neu5Acα2-3Le^xβMU ([1]; 6 h): 24.5%
Neu5Ac cleaved from Neu5Acα2-3Le^xβMU ([1]; 20 h): 34.0%
